Experiment in all cases: EMSA; 20 mM HEPES-KOH pH 7.9, 20% glycerol, 0.2 mM EDTA, 0.1 M KCl, 0.5 mM PMSF, 1 mM DTT, 5 mM MgCl2, 1.25 ug/ul BSA, 0.2 nM DNA, 2 h at 4 C; 7.5% PAGE in TBE
Common to all, as to conditions: protein: recombinant; tags: GST; label: 5'-32P; blunt

In one data set the target is T1, GST-ZNF644 (human, UniProt Q9H582 1-1327).
T1 sequence: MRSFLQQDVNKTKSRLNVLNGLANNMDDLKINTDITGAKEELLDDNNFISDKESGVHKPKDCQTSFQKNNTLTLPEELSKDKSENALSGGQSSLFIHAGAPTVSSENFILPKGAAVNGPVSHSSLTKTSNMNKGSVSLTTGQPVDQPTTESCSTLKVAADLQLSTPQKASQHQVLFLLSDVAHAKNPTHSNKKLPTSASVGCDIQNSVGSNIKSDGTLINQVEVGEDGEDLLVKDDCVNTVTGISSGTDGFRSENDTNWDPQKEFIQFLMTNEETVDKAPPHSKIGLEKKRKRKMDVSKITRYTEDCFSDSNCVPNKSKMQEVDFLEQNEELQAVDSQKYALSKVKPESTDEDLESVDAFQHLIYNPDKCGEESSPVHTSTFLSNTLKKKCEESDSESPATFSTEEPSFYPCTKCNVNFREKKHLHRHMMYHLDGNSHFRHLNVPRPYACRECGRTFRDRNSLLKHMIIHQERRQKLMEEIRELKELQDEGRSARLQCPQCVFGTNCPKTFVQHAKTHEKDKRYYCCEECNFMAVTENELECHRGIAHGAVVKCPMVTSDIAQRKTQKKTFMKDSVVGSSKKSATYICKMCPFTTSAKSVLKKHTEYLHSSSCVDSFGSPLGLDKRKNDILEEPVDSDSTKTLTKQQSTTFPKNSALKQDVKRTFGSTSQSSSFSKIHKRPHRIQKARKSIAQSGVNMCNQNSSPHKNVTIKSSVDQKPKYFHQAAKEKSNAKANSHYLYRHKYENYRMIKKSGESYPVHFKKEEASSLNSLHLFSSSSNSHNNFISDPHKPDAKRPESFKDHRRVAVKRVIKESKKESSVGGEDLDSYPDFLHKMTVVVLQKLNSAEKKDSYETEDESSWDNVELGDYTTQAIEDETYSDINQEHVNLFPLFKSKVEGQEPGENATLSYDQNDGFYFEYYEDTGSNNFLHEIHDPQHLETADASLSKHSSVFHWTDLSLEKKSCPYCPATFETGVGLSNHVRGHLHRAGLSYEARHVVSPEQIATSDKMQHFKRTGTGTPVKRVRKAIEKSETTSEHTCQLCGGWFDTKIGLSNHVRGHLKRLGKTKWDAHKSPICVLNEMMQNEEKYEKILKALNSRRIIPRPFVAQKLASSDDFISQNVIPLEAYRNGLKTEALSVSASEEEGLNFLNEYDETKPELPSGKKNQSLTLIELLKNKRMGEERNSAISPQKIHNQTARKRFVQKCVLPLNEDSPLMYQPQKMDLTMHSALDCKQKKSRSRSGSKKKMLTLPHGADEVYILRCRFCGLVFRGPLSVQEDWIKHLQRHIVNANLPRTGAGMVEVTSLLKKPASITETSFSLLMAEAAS

Another data set concerns the target T2, GST-ZNF644N300 (human, UniProt Q9H582 1-300).
T2 sequence: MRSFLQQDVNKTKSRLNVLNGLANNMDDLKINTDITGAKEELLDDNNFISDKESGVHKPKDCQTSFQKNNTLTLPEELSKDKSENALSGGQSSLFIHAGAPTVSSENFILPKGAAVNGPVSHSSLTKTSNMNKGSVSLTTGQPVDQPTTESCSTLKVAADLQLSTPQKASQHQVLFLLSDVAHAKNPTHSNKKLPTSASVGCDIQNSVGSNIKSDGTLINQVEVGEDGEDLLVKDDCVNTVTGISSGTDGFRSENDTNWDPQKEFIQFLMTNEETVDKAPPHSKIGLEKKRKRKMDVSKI

A further data set concerns the target GST-WIZ (human, UniProt O95785 1-1651).
The target in the next data set is T3, GST-WIZN200 (human, UniProt O95785 1-200).
T3 sequence: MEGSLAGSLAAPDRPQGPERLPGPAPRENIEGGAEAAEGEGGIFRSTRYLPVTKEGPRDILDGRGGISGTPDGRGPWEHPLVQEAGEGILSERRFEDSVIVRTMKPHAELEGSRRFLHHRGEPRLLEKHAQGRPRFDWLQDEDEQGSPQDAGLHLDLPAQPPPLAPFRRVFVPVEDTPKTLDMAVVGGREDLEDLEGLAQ

B1: ZNF644 WT DNA target (dsDNA)
DNA 1: GAGTAAGATCATGCCACTGGGAATCATCGAACACAGAGTGAGGCTGGG
DNA 2: CCCAGCCTCACTCTGTGTTCGATGATTCCCAGTGGCATGATCTTACTC
Consider B1, for which the values for the binding result with GST-ZNF644 and in the data set with GST-ZNF644N300 were “binds” and “no binding”, respectively.

B2: WIZ WT DNA target (dsDNA)
DNA 1: GAGTCTCACTCACGCGCCATTCCATTCCATTCAGATACTAGTACGGTCAG
DNA 2: CTGACCGTACTAGTATCTGAATGGAATGGAATGGCGCGTGAGTGAGACTC
Consider B2, for which the binding result with GST-WIZ is “binds”; with GST-WIZN200, “no binding”.

(Values after publication PMC4365668, “The zinc finger proteins ZNF644 and WIZ regulate the G9a/GLP complex for gene repression”.)
